Numbering of substitutions follows the chain as printed.
T1: glycoprotein of rabies virus strain CVS-11 (rabies virus strain CVS-11, UniProt O92284 20-524)
T1 sequence: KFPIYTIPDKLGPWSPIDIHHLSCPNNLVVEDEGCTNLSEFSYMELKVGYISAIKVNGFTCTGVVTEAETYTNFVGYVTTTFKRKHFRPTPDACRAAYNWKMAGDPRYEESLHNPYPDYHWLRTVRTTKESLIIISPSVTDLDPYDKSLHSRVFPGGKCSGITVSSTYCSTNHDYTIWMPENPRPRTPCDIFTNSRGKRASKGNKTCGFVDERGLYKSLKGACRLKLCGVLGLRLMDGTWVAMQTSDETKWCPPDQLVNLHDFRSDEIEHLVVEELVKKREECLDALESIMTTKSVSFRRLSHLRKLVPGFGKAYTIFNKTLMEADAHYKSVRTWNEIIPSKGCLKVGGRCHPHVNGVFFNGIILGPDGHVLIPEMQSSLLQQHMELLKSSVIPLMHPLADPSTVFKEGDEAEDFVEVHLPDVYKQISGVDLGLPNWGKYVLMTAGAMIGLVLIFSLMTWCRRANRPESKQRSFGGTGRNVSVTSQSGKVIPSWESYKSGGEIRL

B1: SC04-073 (scFv)
scFv: AMAQVQLVQSGGGVAQPGRSLRLSCAASGFTFSSYGMHWVRQAPGKGLEWVADISYDGSNKYYADSVKGRFTISRDNSKNTLYLQMNSLRAEDTAVYYCAKDGLDLTGTIQPFGYWGQGTLVTVSSGTGGSGGTGSGTGGSTDIQLTQSPSFLSASVGDRVTITCRASHSISSWLAWYQQKPGKAPKLLIYKASSLESGVPSRFSGSGSGTDFTLTISSLQPEDFATYYCLQDYNYPRTFGQGTKLEIKRAAA
B2: SC04-001 (scFv)
scFv: AMAEVQLVESGGGVVRPGGSLRLSCAASGFTFDDYGMSWVRQAPGKGLEWVSGINWNGGSTGYADSVKGRFTISRDNAKNSLYLQMNSLRAEDTAVYYCAKGLYGELFDYWGQGTLVTVSRGGGGSGGGGSGGGGSSELTQDPAVSVALGQTVRITCQGDSLRSYYASWYQQKPGQAPVLVIYGKNNRPSGIPDRFSGSSSGNTASLTITGAQAEDEADYYCNSRDSSGNHVVFGGGTKLTVLGAAA
B3: SC04-040 (scFv)
scFv: AMAQVQLVQSGGGVVQPGRSLRLSCAASGFTFGSYGMHWVRQAPGKGLEWVATIFYDGSYKDYADSVKGRFTISRDNSKNTLYLQMNSLRAEDTAVYYCAKGSKVGDFDYWGQGTLVTVSSGTGGSGGTGSGTGGSTQPVLTQPPSVSVAPGQTARISCGGDNIGTNTVQWYQQKPGQAPVLVVYDDSDRPSGIPERFSGSNSGDTATLTISRVEAGDEADYYCQVWDDSSDLVVFGGGTKVTVLGAAA
B4: SC04-010 (scFv)
scFv: AMAQVQLVQSGGDLVQPGRSLRLSCAASGFTFSSYGMHWVRQAPGKGLEWVADISYDGSNKYYADSVKGRFTISRDNSKNTLYLQMNSLRAEDTAVYYCAKDGLDLTGTIQPFGYWGQGTLVTVSSGTGGSGGTGSGTGGSTDIQMTQSPSSLSASVGDRVTITCRASQGIRNDLGWYQQKPGKAPKLLIYAASSLQSGVPSRFSGSGSGTDFTLTISSLQPEDFATYYCLQDYNYPRTFGQGTKVEIKRAAA
B5: SC04-026 (scFv)
scFv: AMAEVQLVESGAEVKKPGESLKISCKGSGYNFPYSWIAWVRQMPGKGLEWMGIIFPGDSDTRYSPPFQGQVTISADNSKSTAYLQWSSLKASDTAMYYCARTSNWNYLDRFDPWGQGTLVTVSSGTGGSGGTGSGTGGSTDVVMTQSPLSLPVTPGEPASISCRSSQSLLHSNGHDYLDWYVQKPGQSPQPLIYLGSDRASGVPDRFSGSGSGTHFTLNISRVEAEDVGVYYCMQSLQTPWTFGQGTKLEIKRAAA
B6: SC04-060 (scFv)
scFv: AMAQVQLVESGPGLVKASETLSLTCTVSDGSISSFYWSWIRQPPGKGLEWVGEIQDTGRTNYNPSLKSRVTISLDTSKNQFSLTLSSVTAADTAVYYCAREKEKYSDRSGYSYYYYYMDVWGKGTTVTVSSGTGGSGGTGSGTGGSTDIQMTQSPSSLSASVGDRVTITCRASQGISTYLNWYQQKPGKAPNLLIYGASNLQSGVPSRFSGSESGTDFTLTISSLQPEDFATYYCQQSFTTPRTFGQGTKLEIKRAAA
B7: SC04-164 (scFv)
scFv: AMAEVQLVESGGGVVQPGRSLRLSCAASGFTFSSYGMHWVRQAPGKGLEWVAVISYDGSSKYYADSVKGRFTISRDNSKNTLYLQMNSLRAEDTAVYYCAKGSVLGDAFDIWGQGTMVTVSSGTGGSGGTGSGTGGSTDIQLTQSPSSVSASVGDRVTITCRASQGISSWLAWYQQKPGKAPKLLIYAASSLQSGVPSRFSGSGSGTDFTLTISSLQPEDFATYYCQQANSFPLTFGGGTKVDIKRAAA
B8: SC04-031 (scFv)
scFv: B7 scFv with S60N, L142M, S148F, D243E
B9: SC04-038 (scFv)
scFv: B7 scFv with E4Q, E9Q, S169G, G179E, S194R, L234P, G238Q, K241R, V242L, D243E
B10: SC04-097 (scFv)
scFv: AMAEVQLVQSGGHLVQPGGSLRLSCAASGFTFSSYAMSWVRQAPGKGLEWVSLIIGSGRSTYYADSVKGRFTISRDNSKNTLYLQMNSLRAEDTAVYYCAKTASNLGRGGMDVWGQGTTVTVSSGTGGSGGTGSGTGGSTDIQLTQSPSSLSASVGDRVTITCRASQGISSHLAWYQQKPGKAPKLLIYAASSLQSGVPSRFSGSGSGTEFTLTISSLQPEDFATYYCQQFNSYPITFGQGTRLEIKRAAA
B11: SC04-108 (scFv)
scFv: AMAEVQLVQSGGGLVQPGGSLRLSCAASGFTFSSYGMHWVRQAPGKGLEWVAVILYDGSDKFYADSVKGRFTISRDNSKDTLYLQMNSLRAEDTAVYYCAKFMIVADDAFDIWGQGTMVTVSSGTGGSGGTGSGTGGSTDIQLTQSPSSLSASVGDRVTITCRASQGISSHLVWYQQKPGKAPKSLIYAASSLQSGVPSRFSGSESATDFTLTISSLQPEDFATYYCQQYYSYPITFGQGTRLEIKRAAA
B12: SC04-021 (scFv)
scFv: AMAEVQLVESGGGVVQPGRSLRLSCAASGFTFSSYGMHWVRQAPGKGLEWVAVISYDGSSKYYADSVKGRFTISRDNSKNTLYLQMNSLRAEDTAVYYCAKGSVLGDAFDIWGQGTMVTVSSGTGGSGGTGSGTGGSTDIQMTQSPFSLSASVGDRVTITCRASQGIGSSLAWYQQKPGKAPKLLIYAASSLQSGVPSRFSGSGSGTDFTLTISSLQPEDFATYFCLQHHDYPLTFGGGTKLEIKRAAA
B13: SC04-098 (scFv)
scFv: AMAEVQLVQSGGGAVQPGRSLRLSCAASGFTFSSYGMHWVRQAPGKGLEWVAVILYDGSDKFYADSVKGRFTISRDNSKNTLYLQMNSLRAEDTAVYYCAKVAVAGTHFDYWGQGTLVTVSSGTGGSGGTGSGTGGSTDIQMTQSPSSLSASVGDRVTITCRASQGIRNDLGWYQQKPGKAPKLLIYAASSLQSGVPSRFSGSGSGTDFTLTISSLQPEDFATYYCQQLNSYPPTFGGGTKVEIKRAAA
B14: SC04-104 (scFv)
scFv: AMAQVQLQESGGGVVQPGRSLRLSCAASGFTFSSYGMHWVRQAPGKGLEWVATISYDGNVKDYADSVKGRFTISRDNSKNTLYLQMNSLRTEDTAVYYCAKIVVVTALDAFDIWGQGTMVTVSSGTGGSGGTGSGTGGSTDIQLTQSPSTLSASVGDRVTITCRASQILGHWLPLSWYQQKPGKAPKLLISKASSLESGVPPRFSGSGSGSDFTLTISSLQPDDFATYYCLQYHEYPLTFGGGTKLEIKRAAA
B15: SC04-018 (scFv)
scFv: AMAEVQLVESGPGLVRPSGTLSLTCAVSGGSISSSNWWSWVRQPPGKGLEWIGEIYHSGSTNYNPSLKSRVTISVDKSKNQFSLKLSSVTAADTAVYYCARVSVTTGAFNIWGQGTMVTVSSGTGGSGGTGSGTGGSTQPVLTQPLSASGTPGQRVTISCSGDTSNIGSNTVHWYQRLPGTAPKLLIHNNNQRPSGVPDRFSGAKSGTSASLAISGLQSEDEADYFCAAWDDNLNGYVFGTGTKVTVLGAAA
B16: scFv SO57 (scFv)
scFv: AMAQVQLVQSGAEVKKPGSSVKVSCKASGGTFNRYTVNWVRQAPGQGLEWMGGIIPIFGTANYAQRFQGRLTITADESTSTAYMELSSLRSDDTAVYFCARENLDNSGTYYYFSGWFDPWGQGTLVTVSSGTGGSGGTGSGTGGSTQSALTQPRSVSGSPGQSVTISCTGTSSDIGGYNFVSWYQQHPGKAPKLMIYDATKRPSGVPDRFSGSKSGNTASLTISGLQAEDEADYYCCSYAGDYTPGVVFGGGTKLTVLGAAA
B17: SC04-103 (scFv)
scFv: AMAQVQLQESGGGVVQPGRSLRLSCAASGFTFSSYGMHWVRQAPGKGLEWVAVILYDGSDKYYADSVKGRFTISRDNSKNTLYLQMNSLRAEDTAVYYCAKVAVAGESFDSWGRGTLVTVSSGTGGSGGTGSGTGGSTDIQLTQSPSSVSASVGDRVTITCRASQGISSWLAWYQQKPGKAPRSLIYDASSLQSGVPSRFSGSGSGTDFTLTISSLQPEDFATYYCQQADSFPITFGQGTRLEIKRAAA
B18: SC04-008 (scFv)
scFv: AMAQVTLKESGPTLVKPTQTLTLTCTFSGFSLSTSGVGVGWIRQPPGKALEWLARIDWDDDKYYSTSLKTRLTISKDTSKNQVVLTMTNMDPVDTATYYCARMGFTGTYFDYWGQGTLVTVSSGTGGSGGTGSGTGGSTQAVLTQPSSVSVAPGETASVTCGGDNIGSKSVHWYQKKPGQAPVLVVFDDSDRPSGIPERFSGSTSGNTAALTISRVEAGDEADYYCQVWDSSNDHLYVFGPGTQLTVLSAAA

These binders were tested against purified rabies virus glycoprotein (rabies virus ERA strain) (rabies virus strain ERA, UniProt P03524 20-524) (assay: phage ELISA on coated purified G protein (ERA), anti-M13-HRP).

Going from B1 to B2, the “OD 492 nm” value rises from 0.657 OD 492 nm to 0.828 OD 492 nm.

Compared with B3, B4 is higher in “OD 492 nm” value: 0.74 OD 492 nm for the first, 0.915 OD 492 nm for the second.

Compared with B5, B6 is higher in “OD 492 nm” value: 0.212 OD 492 nm for the first, 0.923 OD 492 nm for the second.

Compared with B7, B8 is higher in “OD 492 nm” value: 0.547 OD 492 nm for the first, 0.721 OD 492 nm for the second.

Going from B9 to B10, the “OD 492 nm” value rises from 0.653 OD 492 nm to 0.835 OD 492 nm.

Going from B11 to B12, the “OD 492 nm” value falls from 0.363 OD 492 nm to 0.278 OD 492 nm.

First: B13
Second: B14
The “OD 492 nm” value of the first is higher: 0.798 OD 492 nm for the first, 0.566 OD 492 nm for the second.

First: B15
Second: B16
The “OD 492 nm” value of the first is lower: 0.247 OD 492 nm for the first, 0.65 OD 492 nm for the second.

Going from B17 to B18, the “OD 492 nm” value falls from 0.606 OD 492 nm to 0.582 OD 492 nm.

These binders were tested against T1, glycoprotein of rabies virus strain … (assay: cell-based or functional assay).

Going from B1 to B2, the “Potency (IU/ml)” value falls from 3 IU/ml to 1.3 IU/ml.

Compared with B3, B4 is higher in “Potency (IU/ml)” value: 0.3 IU/ml for the first, 4 IU/ml for the second.

First: B5
Second: B6
The “Potency (IU/ml)” value of the first is higher: 0.3 IU/ml for the first, 0.2 IU/ml for the second.

Compared with B7, B8 is higher in “Potency (IU/ml)” value: 0.3 IU/ml for the first, 0.7 IU/ml for the second.

Going from B9 to B10, the “Potency (IU/ml)” value falls from 2 IU/ml to 0.2 IU/ml.

Going from B11 to B12, the “Potency (IU/ml)” value rises from 1 IU/ml to 1.3 IU/ml.

Going from B13 to B14, the “Potency (IU/ml)” value falls from 9 IU/ml to 1 IU/ml.

First: B15
Second: B17
The “Potency (IU/ml)” value of the first is lower: 0.1 IU/ml for the first, 0.3 IU/ml for the second.

B18 was tested, and the “Potency (IU/ml)” value was greater than 54 IU/ml.

From US20070072177A1 (CRUCELL HOLLAND B V, published 2007)
